Test results as given in US20200255508A1 (AbbVie / Abbott, published 2020).
Like-named read-outs stand apart in the source and are kept apart here.

Columns and labels:
[1] = target: T1, human DLL4 extracellular domain (human, UniProt Q9NR61 27-529); experiment: Biacore SPR
T1 construct: extracellular domain; coated on plates in the sVEGFR1 assay; also called huDLL4 ECD; Human DLL4 ECD
Description: (§1) Binding of DLL4 antibodies to a purified recombinant DLL4 extracellular domain is determined by surface plasmon resonance-based measurements with a Biacore® instrument (either a Biacore 2000, Biacore 3000, or Biacore T100, GE Healthcare, Piscataway, N.J. US) using running buffer HBS-EPB (10 mM HEPES [pH 7.4], 150 mM NaCl, 3 mM EDTA, 0.1 mg/ml BSA and 0.005% surfactant P20) at 25° C. For example, approximately 9000 RU of goat anti-human Fc specific polyclonal antibody (Thermo Fisher Scientific Inc., Rockford, Ill., US) diluted in 10 mM sodium acetate (pH 4.5) is directly immobilized across a CM5 research grade biosensor chip using a standard amine coupling kit according to manufacturer's instructions and procedures at 25 μg/ml. Unreacted moieties on the biosensor surface are blocked with ethanolamine. For kinetic analysis, rate equations derived from the 1:1 Langmuir binding model are fitted simultaneously to multiple antigen injections (using global fit analysis) with the use of Scrubber 2 (BioLogic Software). […] The equilibrium dissociation constant KD (M) of the reaction between antibodies and the target antigen is then calculated from the kinetic rate constants by the following formula: KD=Koff/Kₒₙ. Binding is recorded as a function of time and kinetic rate constants are calculated. In this assay, on-rates as fast as 10⁶ M⁻¹s⁻¹ and off-rates as slow as 10⁻⁶ s⁻¹ can be measured.

[2] = target: T2, mouse DLL4 extracellular domain (mouse, UniProt Q9JI71 27-532); experiment: Biacore SPR
T2 construct: extracellular domain; also called muDLL4 ECD; Mouse DLL4 ECD
Description: as §1

[3] = target: T3, rat DLL4 extracellular domain (rat, UniProt D3ZHH1 28-530); experiment: Biacore SPR
T3 construct: extracellular domain; also called ratDLL4 ECD
Description: as §1

[4] = target: T1, human DLL4 extracellular domain; experiment: capture ELISA
Description: (§2) ELISA plates were washed 3 times with wash buffer (PBS, 0.05% Tween-20) and then blocked with 200 ml/well blocking buffer (D-PBS, 1% BSA, 1 mM CaCl₂, 0.05% Tween-20) for 1 hour at 25° C. Plates were washed 3 times and incubated with 100 μl/well DLL4 antibodies (0.0001-100 nM, 10-fold serial dilution in blocking buffer) for 1 hour at 25° C., and then washed again 3 times. […] The reaction was stopped after 2 minutes at 25° C. with 100 μl/well 2 N H2SO₄ and the absorbance was read at 450 nm. Data were analyzed using Graphpad Prism software and EC₅₀ values were reported.

[5] = target: T4, human DLL4 on the cell surface (human, UniProt Q9NR61 27-685); experiment: FACS on DLL4 cells
T4 construct: whole, on cells; also called HEK293-hDLL4; hDLL4-293G
Description: (§3) Stable cell lines overexpressing cell-surface DLL4 were harvested from tissue culture flasks, washed four times and resuspended in phosphate buffered saline (PBS) containing 1% bovine serum albumin and 1 mM CaCl₂ (FACS buffer), 1.5×10³ cells were incubated with antibodies at various concentrations in FACS buffer for 60 minutes on ice. Cells were washed twice and 50 μL of R-phycoerythrin-conjugated anti-rat IgG. […] Following an incubation on ice (4° C., 60 minutes), cells were washed three times and resuspended in FACS buffer. Fluorescence was measured using a Becton Dickinson FACSCalibur-HTS (Becton Dickinson, San Jose. Calif., US). Data were analyzed using Graphpad Prism software and EC₅₀ values were reported as the concentration of antibody to achieve 50% of maximal DLL4 antibodies binding to DLL4 expressing cells.

[6] = target: T1, human DLL4 extracellular domain; experiment: cell-based or functional assay
[7] = target: T4, human DLL4 on the cell surface; experiment: cell-based or functional assay
[8] = target: T4, human DLL4 on the cell surface; experiment: competition FACS, competitor huNotch-1
Description: (§4) Notch blocking assay: Briefly, stable cell lines overexpressing cell-surface DLL4 were harvested from tissue culture flasks and re-suspended in phosphate buffered saline (PBS) containing 1% bovine serum albumin and 1 mM CaCl₂ (FACS buffer). HEK293-hDLL4 or HEK293-mDLL4 cells were dispensed into 96-well plate (v-bottom) at 1.5×10⁵ cells/well in FACS buffer. […] After washing the cells two times with FACS buffer, 50 μL of R-phycoerythrin-conjugated streptavidin (1:150 dilution in FACS buffer) (Jackson ImmunoResearch, West Grove, Pa., US, catalog no. 016-110-084) were added. Following an incubation on ice (4° C., 60 minutes), cells were washed three times and resuspended in FACS buffer. Fluorescence was measured using a Becton Dickinson FACSCalibur-HTS (Becton Dickinson, San Jose. Calif.).

[9] = target: T1, human DLL4 extracellular domain; experiment: competition ELISA, competitor huNotch-1
Description: (§5) Plates were then washed 3 times with wash buffer (PBS, 0.05% Tween-20) and blocked with 200 μl/well blocking buffer (D-PBS, 1% BSA, 1 mM CaCl₂, 0.05% Tween-20) for 1 hour at 25° C. […] Assay plates were washed after blocking, and incubated with DLL4/antibody mixtures (100 μl/well, 1 hour at 25° C. with shaking). […] After a final wash, plates were developed using 100 μl/well substrate (TMB Sigma # T8665), and the reaction was stopped after an 8-minute incubation at 25° C. (for muDLL4 ELISA) and after 20 minute incubation at 25° C. (for huDLL4 ELISA) using 100 μl/well 1N HCl, and the absorbance was read at 450 nm.

[10] = target: T2, mouse DLL4 extracellular domain; experiment: capture ELISA
Description: as §2

[11] = target: T5, mouse DLL4 on the cell surface (mouse, UniProt Q9JI71 27-686); experiment: FACS on DLL4 cells
T5 construct: whole, on cells; also called HEK293-mDLL4; mDLL4-293G
Description: as §3

[12] = target: T2, mouse DLL4 extracellular domain; experiment: cell-based or functional assay
[13] = target: T5, mouse DLL4 on the cell surface; experiment: competition FACS, competitor huNotch-1
Description: as §4

[14] = target: T2, mouse DLL4 extracellular domain; experiment: competition ELISA, competitor huNotch-1
Description: as §5

[15] = target: T1, human DLL4 extracellular domain; experiment: Biacore SPR; remark: listed apart in the source
Description: as §1

[16] = target: T1, human DLL4 extracellular domain; experiment: capture ELISA; remark: listed apart in the source
Description: as §2

[17] = target: T2, mouse DLL4 extracellular domain; experiment: capture ELISA; remark: listed apart in the source
Description: as §2

[18] = target: T4, human DLL4 on the cell surface; experiment: FACS on DLL4 cells; remark: listed apart in the source
[19] = target: T5, mouse DLL4 on the cell surface; experiment: FACS on DLL4 cells; remark: listed apart in the source
[20] = target: T4, human DLL4 on the cell surface; experiment: cell-based or functional assay; remark: listed apart in the source
[21] = target: T4, human DLL4 on the cell surface; experiment: competition FACS, competitor huNotch-1; remark: listed apart in the source
Description: as §4

[22] = target: T5, mouse DLL4 on the cell surface; experiment: competition FACS, competitor huNotch-1; remark: listed apart in the source
Description: as §4

[23] = target: T1, human DLL4 extracellular domain; experiment: competition ELISA, competitor huNotch-1; remark: listed apart in the source
Description: as §5

[24] = target: T2, mouse DLL4 extracellular domain; experiment: competition ELISA, competitor huNotch-1; remark: listed apart in the source
Description: as §5

[25] = target: T1, human DLL4 extracellular domain; experiment: Biacore SPR; remark: listed apart in the source
Description: (§6) The BIACORE® surface plasmon resonance assay (Biacore, Inc., Piscataway, N.J., US) determines the affinity of antibodies with kinetic measurements of on-rate and off-rate constants. Binding of DLL4 antibodies to a purified recombinant DLL4 extracellular domain is determined by surface plasmon resonance-based measurements with a Biacore® instrument (either a Biacore 2000, Biacore 3000, or Biacore T100, GE Healthcare, Piscataway, N.J. US) using running buffer HBS-EPB (10 mM HEPES [pH 7.4], 150 mM NaCl, 3 mM EDTA, 0.1 mg/ml BSA and 0.005% surfactant P20) at 25° C. For example, approximately 9000 RU of goat anti-human Fc specific polyclonal antibody (Thermo Fisher Scientific Inc., Rockford, Ill., US) diluted in 10 mM sodium acetate (pH 4.5) is directly immobilized across a CM5 research grade biosensor chip using a standard amine coupling kit according to manufacturer's instructions and procedures at 25 μg/ml. Unreacted moieties on the biosensor surface are blocked with ethanolamine. For kinetic analysis, rate equations derived from the 1:1 Langmuir binding model are fitted simultaneously to multiple antigen injections (using global fit analysis) with the use of Scrubber 2 (BioLogic Software). […] The equilibrium dissociation constant KD (M) of the reaction between antibodies and the target antigen is then calculated from the kinetic rate constants by the following formula: KD=Koff/Kₒₙ. Binding is recorded as a function of time and kinetic rate constants are calculated. In this assay, on-rates as fast as 10⁶ M⁻¹s⁻¹ and off-rates as slow as 10⁻⁶ s⁻¹ can be measured.

[26] = target: T2, mouse DLL4 extracellular domain; experiment: Biacore SPR; remark: listed apart in the source
Description: as §6

[27] = target: T1, human DLL4 extracellular domain; experiment: Biacore SPR; remark: listed apart in the source
Description: as §6

[28] = target: T2, mouse DLL4 extracellular domain; experiment: Biacore SPR; remark: listed apart in the source
Description: as §6

[29] = target: T6, human DLL4-his (human, UniProt Q9NR61 27-529); experiment: ELISA on DLL4-his
T6 construct: extracellular domain
Description: (§7) After the final wash, plates were incubated with 100 μl/well ELISA substrate (Sigma # T8665). The reaction was stopped after 8 minutes at 25° C. with 100 μl/well 1N HCl and the absorbance was read at 450 nm. Data were analyzed using Graphpad Prism software and EC50 values were reported.

[30] = target: T7, mouse DLL4-his (mouse, UniProt Q9JI71 27-532); experiment: ELISA on DLL4-his
T7 construct: extracellular domain; not shown: his tag

[31] = target: T6, human DLL4-his; experiment: ELISA on DLL4-his; remark: listed apart in the source
Description: as §7

[32] = target: T7, mouse DLL4-his; experiment: ELISA on DLL4-his; remark: listed apart in the source
Description: as §7

[33] = target: T4, human DLL4 on the cell surface; experiment: FACS on DLL4 cells; remark: listed apart in the source
Description: as §3

[34] = target: T4, human DLL4 on the cell surface; experiment: FACS on DLL4 cells; remark: listed apart in the source
Description: as §3

[35] = target: T5, mouse DLL4 on the cell surface; experiment: FACS on DLL4 cells; remark: listed apart in the source
Description: as §3

[36] = target: T5, mouse DLL4 on the cell surface; experiment: FACS on DLL4 cells (*historic data)
[37] = target: T4, human DLL4 on the cell surface; experiment: competition FACS, competitor huNotch-1; remark: listed apart in the source
Description: as §4

[38] = target: T5, mouse DLL4 on the cell surface; experiment: competition FACS, competitor huNotch-1; remark: listed apart in the source
Description: as §4

[39] = target: T4, human DLL4 on the cell surface; experiment: competition FACS, competitor huNotch-1; remark: listed apart in the source
Description: as §4

[40] = target: T5, mouse DLL4 on the cell surface; experiment: competition FACS, competitor huNotch-1; remark: listed apart in the source
Description: as §4

[41] = target: T1, human DLL4 extracellular domain; experiment: competition ELISA, competitor huNotch-1; remark: listed apart in the source
Description: as §5

[42] = target: T2, mouse DLL4 extracellular domain; experiment: competition ELISA, competitor huNotch-1; remark: listed apart in the source
Description: as §5

[43] = target: T1, human DLL4 extracellular domain; experiment: competition ELISA, competitor huNotch-1; remark: listed apart in the source
Description: as §5

[44] = target: T2, mouse DLL4 extracellular domain; experiment: competition ELISA, competitor huNotch-1; remark: listed apart in the source
Description: as §5

[45] = target: T2, mouse DLL4 extracellular domain; experiment: Biacore SPR; remark: listed apart in the source
Description: as §1

T2 sequence (Q9JI71 27-532): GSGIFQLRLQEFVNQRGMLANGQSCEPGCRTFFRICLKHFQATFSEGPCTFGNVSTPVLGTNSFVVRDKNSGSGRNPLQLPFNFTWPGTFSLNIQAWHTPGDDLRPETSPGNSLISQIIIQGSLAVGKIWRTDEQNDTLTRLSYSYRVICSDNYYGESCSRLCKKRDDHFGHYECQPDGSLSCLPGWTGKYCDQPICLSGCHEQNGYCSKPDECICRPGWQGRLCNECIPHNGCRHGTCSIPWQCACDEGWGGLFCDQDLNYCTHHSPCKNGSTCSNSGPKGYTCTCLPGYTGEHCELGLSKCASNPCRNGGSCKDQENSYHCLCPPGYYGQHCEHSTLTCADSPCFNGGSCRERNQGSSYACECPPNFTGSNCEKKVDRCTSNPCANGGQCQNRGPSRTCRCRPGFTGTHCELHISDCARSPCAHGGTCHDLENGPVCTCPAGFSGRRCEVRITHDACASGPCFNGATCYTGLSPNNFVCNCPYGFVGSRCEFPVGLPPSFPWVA
T5 sequence (Q9JI71 27-686): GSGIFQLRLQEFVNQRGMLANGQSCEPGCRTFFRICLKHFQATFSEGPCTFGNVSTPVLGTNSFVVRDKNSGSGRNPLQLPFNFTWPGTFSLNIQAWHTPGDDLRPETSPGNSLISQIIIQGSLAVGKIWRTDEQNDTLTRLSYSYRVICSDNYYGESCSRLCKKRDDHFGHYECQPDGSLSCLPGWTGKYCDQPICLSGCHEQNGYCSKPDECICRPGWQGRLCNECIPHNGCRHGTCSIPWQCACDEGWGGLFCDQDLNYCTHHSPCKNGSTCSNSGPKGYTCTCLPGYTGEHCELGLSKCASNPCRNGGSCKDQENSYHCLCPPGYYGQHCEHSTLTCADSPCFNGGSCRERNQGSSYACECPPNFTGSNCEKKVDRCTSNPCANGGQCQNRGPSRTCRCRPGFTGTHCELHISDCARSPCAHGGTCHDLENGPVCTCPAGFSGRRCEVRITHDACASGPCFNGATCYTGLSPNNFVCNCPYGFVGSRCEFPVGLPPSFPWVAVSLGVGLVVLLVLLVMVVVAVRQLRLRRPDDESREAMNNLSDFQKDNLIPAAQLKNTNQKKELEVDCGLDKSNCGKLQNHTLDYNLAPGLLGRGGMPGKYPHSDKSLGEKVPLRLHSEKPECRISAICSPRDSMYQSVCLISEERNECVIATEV
T3 sequence (D3ZHH1 28-530): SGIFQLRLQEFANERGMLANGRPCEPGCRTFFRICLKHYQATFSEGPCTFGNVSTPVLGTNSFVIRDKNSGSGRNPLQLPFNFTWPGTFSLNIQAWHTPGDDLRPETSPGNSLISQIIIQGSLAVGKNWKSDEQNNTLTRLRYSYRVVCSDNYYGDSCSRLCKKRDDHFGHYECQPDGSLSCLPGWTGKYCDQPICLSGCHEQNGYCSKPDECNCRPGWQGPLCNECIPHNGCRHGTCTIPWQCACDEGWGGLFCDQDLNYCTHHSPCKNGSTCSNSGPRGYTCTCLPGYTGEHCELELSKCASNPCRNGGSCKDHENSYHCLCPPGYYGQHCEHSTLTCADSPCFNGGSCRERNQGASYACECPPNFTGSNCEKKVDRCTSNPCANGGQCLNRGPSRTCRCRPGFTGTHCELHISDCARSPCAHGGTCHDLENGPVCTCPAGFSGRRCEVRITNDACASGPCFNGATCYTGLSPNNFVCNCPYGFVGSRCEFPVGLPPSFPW
T7 sequence (Q9JI71 27-532): as the sequence (Q9JI71 27-532) above

Kd [1] [nM] | koff [1] [s⁻¹] | kon [1] [M⁻¹ s⁻¹] | EC50 [4] [nM] | EC50 [5] [nM] | sVEGFR1 Inhibition (IC50, nM) DLL4 ECD/EaHy cells, hu [6] [nM] | Inhibition of Notch activation via huDLL4 cells, coculture (IC50, nM) [7] [nM] | IC50 [8] [nM] | Kd [15] [nM] | koff [15] [s⁻¹] | kon [15] [M⁻¹ s⁻¹] | EC50 [16] [nM] | EC50 [17] [nM] | EC50 [18] [nM] | EC50 [19] [nM] | Inhibition of Notch activation via huDLL4 cells, coculture (IC50, nM) [20] [nM] | IC50 [21] [nM] | IC50 [22] [nM] | IC50 [23] [nM] | IC50 [24] [nM] | Binder | other results
6.68 | 0.00015 | 22000 | 0.17 | 0.93 | 1.5 | 7.3 | 4.4 |  |  |  |  |  |  |  |  |  |  |  |  | A10 (antibody, IgG1, V domains shown, also called anti-DLL4 PROfusion antibody A10) VH: EVQLLESGGGLVKSGGSLRLSCAASGFTFRSHWMSWVRQAPGKGLEWVAIISYDGSNKYSADSVKGRFTISRDNSKNTLYLQLNSLRAEDTAVYYCAKAGGGNVGFDIWGQGTMVTVSS VL: LPVLTQPPSVSVSPGQTASITCSADKLGTKYVSWYQQKPGQSPVLVIYQDAKRPSGIPERFSGSNSGNTATLTISGTQTMDEADYLCQSWDRSDVVFGGGTKVTVL | binding result [2]: no binding (tested: 900 nM DLL4); binding result [3]: no binding (tested: 900 nM DLL4); IC50 [9]: 2.6 nM
3.36 | 6.6e-05 | 20000 | 0.17 | 7.23 | 1 | 6.2 | 23.4 |  |  |  |  |  |  |  |  |  |  |  |  | E9 (antibody, IgG1, V domains shown, also called anti-DLL4 PROfusion antibody E9) VH: EVQLQESGPGLVKPSETLSLTCTVSGGSISSSSYYWGWIRQPPGKGLEWIGDIYYTGSTYYNPSLKSRVTISVDTSKNQFSLKLSSVTAADTAVYYCAREDVILRGGSDYWGQGTLVTVSS VL: SYELTQPPSVSVSPGQTASITCSGQRLGDKYASWYQQKPGQSPVLVIYEDSKRPSGIPERFSGSNSGDTATLTISGTQPMDEADYYCQAWDRDTGVFGYGTRVTVL | Kd [2]: 16 nM; koff [2]: 0.00026 s⁻¹; kon [2]: 18000 M⁻¹ s⁻¹; Kd [3]: 15 nM; koff [3]: 0.00029 s⁻¹; kon [3]: 19000 M⁻¹ s⁻¹; EC50 [10]: 0.18 nM; EC50 [11]: 0.32 nM; sVEGFR1 Inhibition (IC50, nM) DLL4 ECD/EaHy cells, mu [12]: 0.4 nM; IC50 [13]: 3.2 nM; IC50 [9]: 1.7 nM; IC50 [14]: 2.1 nM
 |  |  |  |  |  |  |  | 0.02 | 7.9e-06 | 356000 | 0.16 | 0.16 | 1.78 | 0.35 | 2.1 | 2.63 | 0.34 | 2.3 | 2.8 | E9.2B (antibody, V domains shown) VH: EVQLQESGPGLVKPSETLSLTCTVSGGSISSSNYYWGWIRQPPGKGLEWIGDINYNGNTYYNPSLKSRVTISVDTSKNQFSLKLSSVTAADTAVYYCAREAVALGGGADDWGQGTLVTVSS VL: SYELTQPPSVSVSPGQTASITCSGEGLGDKYVSWYQQKPGQSPVLVIYEDSTRPSGIPERFSGSNSGDTATLTISGTQPMDEADYYCQAWDSETGVFGSGTKVTVL | 
 |  |  |  |  |  |  |  |  |  |  |  |  |  |  |  |  |  |  |  | E9.1 (antibody, human IgG1, V domains shown) VH: EVQLQESGPGLVKPSETLSLTCTVSGGSISSSSYYWGWIRQPPGKGLEWIGDIYYTGSTYYNPSLKSRVTISVDTSKNQFSLKLSSVTAADTAVYYCAREDVILRGGSDYWGQGTLVTVSS VL: SYELTQPPSVSVSPGQTASITCSGQRLGDKYASWYQQKPGQSPVLVIYEDSKRPSGIPERFSGSNSGDTATLTISGTQPMDEADYYCQAWDRDTGVFGYGTRVTVLG | Kd [25]: 2.38 nM; Kd [26]: 12.8 nM; Kd [27]: 0.52 nM; Kd [28]: 1.1 nM; EC50 [29]: 0.29 nM; EC50 [30]: 0.34 nM; EC50 [31]: 0.03 nM; EC50 [32]: 0.04 nM; Kd [33]: 0.35 nM; Kd [34]: 3.62 nM; Kd [35]: 1.66 nM; Kd [36]: 1.6 nM; IC50 [37]: 4.55 nM; IC50 [38]: 1.02 nM; IC50 [39]: 1.62 nM; IC50 [40]: 1.06 nM; IC50 [41]: 2.5 nM; IC50 [42]: 2.5 nM; IC50 [43]: 2.2 nM; IC50 [44]: 5.85 nM
 |  |  |  |  |  |  |  | 0.91 | 3.51e-05 | 38800 | 0.16 | 0.17 | 1.82 | 0.32 | 2.1 | 3.22 | 0.24 | 2 | 1.3 | E9.71 (antibody, V domains shown, also called DLL4-E9-71 hIgG1/L) VH: EVQLQESGPGLVKPSETLSLTCTVSGGSISSSSYYWGWIRQPPGKGLEWIGDIYYTGSTYYNPSLKSRVTISVDTSKNQFSLKLSSVTAADTAVYYCARQALAMGGGSDKWGQGTLVTVSS VL: SYELTQPPSVSVSPGQTASITCSGQRLGDKYASWYQQKPGQSPVLVIYEDSKRPSGIPERFSGSNSGDTATLTISGTQPMDEADYYCQAWDRDTGVFGYGTKVTVL | Kd [45]: 6.08 nM; koff [45]: 0.000216 s⁻¹; kon [45]: 35500 M⁻¹ s⁻¹
 |  |  |  |  |  |  |  | 0.69 | 5.17e-05 | 74900 | 0.17 | 0.17 | 2.79 | 0.54 | 4.4 | 4.9 | 0.44 | 1.8 | 1.3 | E9.19 (antibody, V domains shown, also called DLL4-E9-19 hIgG1/L) VH: EVQLQESGPGLVKPSETLSLTCTVSGGSISSSSYYWGWIRQPPGKGLEWIGDIYYTGSTYYNPSLKSRVTISVDTSKNQFSLKLSSVTAADTAVYYCARFDVSLGGGSDTWGQGTLVTVSS VL: SYELTQPPSVSVSPGQTASITCSGQRLGDKYASWYQQKPGQSPVLVIYEDSKRPSGIPERFSGSNSGDTATLTISGTQPMDEADYYCQAWDRDTGVFGYGTKVTVL | Kd [45]: 3.07 nM; koff [45]: 0.000206 s⁻¹; kon [45]: 67000 M⁻¹ s⁻¹
